# Experimental data: paper PMC10485824 (Life Science Alliance, 2023)
# Where a chain is given by its changes, count along the chain named. Names may count otherwise. “And” between values parts separate entries of the source, which are not always exact repeats. Equal values may be shown once.
# T1: RIPK2^1−300 (human, UniProt O43353 1-300, labelled with the Monolith Protein labelling kit RED-NHS second generation (primary amines) for MST only)
# T1 chain: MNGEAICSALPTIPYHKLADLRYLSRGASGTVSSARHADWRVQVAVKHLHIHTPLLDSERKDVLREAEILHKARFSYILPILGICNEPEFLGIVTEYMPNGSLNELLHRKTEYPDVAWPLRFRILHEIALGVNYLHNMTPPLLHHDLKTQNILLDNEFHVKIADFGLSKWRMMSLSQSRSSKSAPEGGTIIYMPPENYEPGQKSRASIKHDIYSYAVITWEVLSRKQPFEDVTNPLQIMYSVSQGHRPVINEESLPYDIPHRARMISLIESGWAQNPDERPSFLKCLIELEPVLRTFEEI
# B1: XIAP BIR2^93−240 (domain or fragment, human)
# chain: GPINGFYLENSATQSTNSGIQNGQYKVENYLGSRDHFALDRPSETHADYLLRTGQVVDISDTIYPRNPAMYSEEARLKSFQNWPDYAHLTPRELASAGLYYTGIGDQVQCFCCGGKLKNWEPCDRAWSEHRRHFPNCFFVLGRNLNIRSE
# notes: two additional residues after the P3C cleavage site; XIAP, human, residues 93-240; source: E. coli Rosetta 2, purified (glutathione sepharose, P3C cleavage, SEC); not shown: GST, N-terminal, cleaved
# B2: RIPK2^1−317 (domain or fragment, human, UniProt O43353 1-317, looked up)
# chain: MNGEAICSALPTIPYHKLADLRYLSRGASGTVSSARHADWRVQVAVKHLHIHTPLLDSERKDVLREAEILHKARFSYILPILGICNEPEFLGIVTEYMPNGSLNELLHRKTEYPDVAWPLRFRILHEIALGVNYLHNMTPPLLHHDLKTQNILLDNEFHVKIADFGLSKWRMMSLSQSRSSKSAPEGGTIIYMPPENYEPGQKSRASIKHDIYSYAVITWEVLSRKQPFEDVTNPLQIMYSVSQGHRPVINEESLPYDIPHRARMISLIESGWAQNPDERPSFLKCLIELEPVLRTFEEITFLEAVIQLKKTKLQSV
# notes: Incubated with nucleotide (ATP or AMPPCP) and MgCl2 before XIAP BIR2 was added; ATP-MgCl2 is said to promote full phosphorylation; Antiparallel dimer in the complex; also called RIPK2 kinase; RIPK2 wt; source: sf21 insect cells (baculovirus), purified (amylose resin, TEV cleavage, anion exchange)
# B3: RIPK2^1−317 K209R (domain or fragment, human, UniProt O43353 1-317, looked up)
# chain: B2 chain with K209R
# notes: Incubated with 500 μM ATP and 5 mM MgCl2 before XIAP BIR2 was added; also called RIPK2–K209R (recombinant); source: sf21 insect cells (baculovirus), purified as RIPK2 wt
# B4: RIPK2^1−317 S282L (domain or fragment, human, UniProt O43353 1-317, looked up)
# chain: B2 chain with S282L
# notes: Incubated with 500 μM ATP and 5 mM MgCl2 before XIAP BIR2 was added; also called RIPK2–S282L (recombinant); source: sf21 insect cells (baculovirus), purified as RIPK2 wt
# B5: RIPK2^1−317 K209A (domain or fragment, human, UniProt O43353 1-317, looked up)
# chain: B2 chain with K209A
# notes: Incubated with 500 μM ATP and 5 mM MgCl2 before XIAP BIR2 was added; also called RIPK2–K209A (recombinant); source: sf21 insect cells (baculovirus), purified as RIPK2 wt
# B6: XIAP BIR2^154–240 (domain or fragment, human, UniProt P98170 154-240, looked up)
# chain: YPRNPAMYSEEARLKSFQNWPDYAHLTPRELASAGLYYTGIGDQVQCFCCGGKLKNWEPCDRAWSEHRRHFPNCFFVLGRNLNIRSE
# notes: Plasmid pET49, a gift from Katrin Rittinger; also called short BIR2 construct; source: E. coli Rosetta 2, purified (glutathione sepharose, P3C cleavage, SEC); not shown: GST, N-terminal, cleaved
# B7: XIAP BIR2AG^154–240 (domain or fragment, human, UniProt P98170 154-240, looked up)
# chain: B6 chain with C49A, C60G
# notes: XIAP, human, BIR2 domain, residues 154-240 with the AG mutations C202A and C213G; Plasmid pET49, a gift from Katrin Rittinger; also called AG construct (short); source: E. coli Rosetta 2, purified (glutathione sepharose, P3C cleavage, SEC); not shown: GST, N-terminal, cleaved
# B8: XIAP BIR2^93−263 (domain or fragment, human)
# chain: GPINGFYLENSATQSTNSGIQNGQYKVENYLGSRDHFALDRPSETHADYLLRTGQVVDISDTIYPRNPAMYSEEARLKSFQNWPDYAHLTPRELASAGLYYTGIGDQVQCFCCGGKLKNWEPCDRAWSEHRRHFPNCFFVLGRNLNIRSESDAVSSDRNFPNSTNLPRNPSMA
# notes: two additional residues after the P3C cleavage site; XIAP, human, residues 93-263; source: E. coli Rosetta 2, purified (glutathione sepharose, P3C cleavage, SEC); not shown: GST, N-terminal, cleaved
# B9: RIPK2^1−300 (domain or fragment, human, UniProt O43353 1-300, looked up)
# chain: T1 chain
# modifications: labelled with the Monolith Protein labelling kit RED-NHS second generation (primary amines) for MST only
# notes: RIPK2, human, kinase domain, residues 1-300; also called kinase domain of RIPK2 (residues 1–300); source: sf21 insect cells (baculovirus), purified (amylose resin, TEV cleavage, anion exchange)
# B10: XIAP BIR2^124–240 (domain or fragment, human)
# chain: GPRDHFALDRPSETHADYLLRTGQVVDISDTIYPRNPAMYSEEARLKSFQNWPDYAHLTPRELASAGLYYTGIGDQVQCFCCGGKLKNWEPCDRAWSEHRRHFPNCFFVLGRNLNIRSE
# notes: two additional residues after the P3C cleavage site; XIAP, human, linker region (124-154) and BIR2 domain, residues 124-240; also called long BIR2 construct; source: E. coli Rosetta 2, purified (glutathione sepharose, P3C cleavage, SEC); not shown: GST, N-terminal, cleaved
# B11: XIAP BIR2AG^124–240 (domain or fragment, human)
# chain: B10 chain with C81A, C92G
# notes: two additional residues after the P3C cleavage site; XIAP, human, residues 124-240 with the AG mutations C202A and C213G; For NMR uniformly 15N- or 13C/15N-labelled (M9 medium); also called AG construct (long); ^15N-labeled XIAP BIR2; source: E. coli Rosetta 2, purified (glutathione sepharose, P3C cleavage, SEC); not shown: GST, N-terminal, cleaved
# B12: XIAP BIR2^124−263 (domain or fragment, human)
# chain: GPRDHFALDRPSETHADYLLRTGQVVDISDTIYPRNPAMYSEEARLKSFQNWPDYAHLTPRELASAGLYYTGIGDQVQCFCCGGKLKNWEPCDRAWSEHRRHFPNCFFVLGRNLNIRSESDAVSSDRNFPNSTNLPRNPSMA
# notes: two additional residues after the P3C cleavage site; XIAP, human, residues 124-263; source: E. coli Rosetta 2, purified (glutathione sepharose, P3C cleavage, SEC); not shown: GST, N-terminal, cleaved
# Columns and labels:
# [1] = target: T1, RIPK2^1−300; assay: MST
# [2] = target: B9; assay: MST; RIPK2 1-300 labelled with RED-NHS at 20 nM final, XIAP BIR2 constructs titrated from 1.2-2,500 nM; 20 mM Hepes pH 7.5, 150 mM NaCl, 2% glycerol, 0.05% Tween-20; 20°C; one-site binding model, triplicates; details: both partners purified
# [3] = target: the molecule itself; assay: native MS; complex fractions reapplied on Superdex 200 10/300 increase in 250 mM ammonium acetate with 1 mM DTT; concentration range of 10 μM
# [4] = target: the molecule itself; assay: SEC; RIPK2 1-317 wt or mutant with 500 μM ATP and 5 mM MgCl2 on ice, XIAP BIR2 154-240 added in excess (1:2), Superdex 200 3.2/300 increase in buffer C; fractions on SDS-PAGE
# [5] = target: B2; assay: native MS; complex fractions reapplied on Superdex 200 10/300 increase in 250 mM ammonium acetate with 1 mM DTT; concentration range of 10 μM; details: both partners purified
# [6] = target: B2; assay: cryo-EM structure; single-particle cryo-EM of the SEC-purified RIPK2 1-317-XIAP BIR2 154-240 complex, Titan Krios 300 keV, untilted and tilted data, 3.15 Å; details: both partners purified
# [7] = target: B9; assay: native MS; complex fractions reapplied on Superdex 200 10/300 increase in 250 mM ammonium acetate with 1 mM DTT; concentration range of 10 μM; details: both partners purified
binder,measurement,setting,value
B1,Kd,[1],92.9 nM
same,binding result,[2],binds
B2,stoichiometry N,[3],2 molecules of RIPK2
B3,binding result,[4],binds
B4,binding result,[4],binds
B5,binding result,[4],binds
B6,stoichiometry N,[5],1 RIPK2 per XIAP BIR2 (printed as the ratio 2:2)
same,stoichiometry N,[6],2 RIPK2 per XIAP BIR2 (printed as the ratio 2:1)
same,Kd,[2],85.6 ± 18.7 nM
B7,stoichiometry N,[5],2 RIPK2 per XIAP BIR2 (printed as the ratio 2:1) and 1 RIPK2 per XIAP BIR2 (printed as the ratio 2:2)
B8,binding result,[2],binds
B9,stoichiometry N,[3],2 molecules of RIPK2
B10,Kd,[1],85.9 nM
same,stoichiometry N,[7],1 RIPK2 per XIAP BIR2 (printed as the ratio 2:2) and 2 RIPK2 per XIAP BIR2 (printed as the ratio 2:1)
B11,stoichiometry N,[5],1 RIPK2 per XIAP BIR2 (printed as the ratio 2:2)
B12,Kd,[1],142 nM
same,binding result,[2],binds
